Results from patent US20230183379A1 (INSERM INSTITUT NATIONAL DE LA SANT ET DE LA RECHERCHE M …, published 2023).
One block for each binder: values may come before it.

Tests used:
[1] = molecular target: T1, transferrin receptor 1 (TfR1), mouse (mouse, UniProt Q62351 1-763); experiment: FACS on mouse P815 cells, anti-human IgG1-FITC
T1 construct: whole, on cells; also called mouse TfR1

mouse IL-6 = molecular target: T2, mouse IL-6 (mouse, UniProt P08505 25-211); experiment: ELISA on adsorbed recombinant mouse IL-6, pH 7.4, 40 nM antibody
T2 construct: Bought recombinant protein; also called Recombinant mouse IL-6 (Peprotech, 216-16)
T2 sequence (looked up): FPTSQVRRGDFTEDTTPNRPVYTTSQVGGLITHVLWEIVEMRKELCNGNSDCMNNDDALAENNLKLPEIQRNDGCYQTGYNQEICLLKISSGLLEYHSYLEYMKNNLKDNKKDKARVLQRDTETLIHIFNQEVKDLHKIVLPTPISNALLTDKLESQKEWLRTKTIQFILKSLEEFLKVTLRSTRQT

[2] = molecular target: T3, transferrin receptor 1 (TfR1), human (human, UniProt P02786 1-760); experiment: FACS on human Raji cells, anti-human IgG1-FITC
T3 construct: whole, on cells; always tested on cells; also called human TfR1; native TfR1

[3] = molecular target: T3, transferrin receptor 1 (TfR1), human; experiment: cell-based or functional assay
[4] = molecular target: T3, transferrin receptor 1 (TfR1), human; experiment: FACS on Raji cells at 4 °C, anti-human IgG (Fc specific)-FITC
[5] = molecular target: T3, transferrin receptor 1 (TfR1), human; experiment: FACS on Raji cells at 4 °C
Procedure: All incubation steps were done on ice. Raji cells (5×10^5 cells) were resuspended in 100 μL of FACS buffer [PBS, 1% FBS] containing various concentrations of the primary antibody for 1 h, washed twice with FACS buffer, and then incubated with the suitable fluorescent secondary antibody. After a final wash, cells were analyzed by FACS. The apparent affinity was determined using the GraphPad software.

[6] = molecular target: T1, transferrin receptor 1 (TfR1), mouse; experiment: FACS on mouse P815 cells at 4 °C

T1 sequence (Q62351 whole entry): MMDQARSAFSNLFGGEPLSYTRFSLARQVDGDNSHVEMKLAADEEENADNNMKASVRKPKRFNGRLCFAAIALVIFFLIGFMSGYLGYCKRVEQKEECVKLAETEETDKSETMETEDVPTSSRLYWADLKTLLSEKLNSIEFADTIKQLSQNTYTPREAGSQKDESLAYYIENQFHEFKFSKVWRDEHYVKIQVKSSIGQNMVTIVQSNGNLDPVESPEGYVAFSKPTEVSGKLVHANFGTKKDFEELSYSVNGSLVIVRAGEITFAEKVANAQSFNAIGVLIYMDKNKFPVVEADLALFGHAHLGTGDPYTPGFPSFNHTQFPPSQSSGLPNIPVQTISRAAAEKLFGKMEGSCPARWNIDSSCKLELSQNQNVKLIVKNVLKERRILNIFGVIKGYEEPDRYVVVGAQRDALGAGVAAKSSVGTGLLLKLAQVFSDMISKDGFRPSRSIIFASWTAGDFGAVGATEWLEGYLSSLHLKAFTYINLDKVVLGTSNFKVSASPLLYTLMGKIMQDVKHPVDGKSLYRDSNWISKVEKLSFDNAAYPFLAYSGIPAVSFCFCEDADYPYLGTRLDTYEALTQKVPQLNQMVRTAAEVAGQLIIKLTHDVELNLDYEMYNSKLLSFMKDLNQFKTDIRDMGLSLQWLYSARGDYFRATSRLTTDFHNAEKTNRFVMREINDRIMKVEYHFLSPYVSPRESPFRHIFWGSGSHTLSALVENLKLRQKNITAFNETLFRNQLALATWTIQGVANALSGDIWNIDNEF
T3 sequence (P02786 whole entry): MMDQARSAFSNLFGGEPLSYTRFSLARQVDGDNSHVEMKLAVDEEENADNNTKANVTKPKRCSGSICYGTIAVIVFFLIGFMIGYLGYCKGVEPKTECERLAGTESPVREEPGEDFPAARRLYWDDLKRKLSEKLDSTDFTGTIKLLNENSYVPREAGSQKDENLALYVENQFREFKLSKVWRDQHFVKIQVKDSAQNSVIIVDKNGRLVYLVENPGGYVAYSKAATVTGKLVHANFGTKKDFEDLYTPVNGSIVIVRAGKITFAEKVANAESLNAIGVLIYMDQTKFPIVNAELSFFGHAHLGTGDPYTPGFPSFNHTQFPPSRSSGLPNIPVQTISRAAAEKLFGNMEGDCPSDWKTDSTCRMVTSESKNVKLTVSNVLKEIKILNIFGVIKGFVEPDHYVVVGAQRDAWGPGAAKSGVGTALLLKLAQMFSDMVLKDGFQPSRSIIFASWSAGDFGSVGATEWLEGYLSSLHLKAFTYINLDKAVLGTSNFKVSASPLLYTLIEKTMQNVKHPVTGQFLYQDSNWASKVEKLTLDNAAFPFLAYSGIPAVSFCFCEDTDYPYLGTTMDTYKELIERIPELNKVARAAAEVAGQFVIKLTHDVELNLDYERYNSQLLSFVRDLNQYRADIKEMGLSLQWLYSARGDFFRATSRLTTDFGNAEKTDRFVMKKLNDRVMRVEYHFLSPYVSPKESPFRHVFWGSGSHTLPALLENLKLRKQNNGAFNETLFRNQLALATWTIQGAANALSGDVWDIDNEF

B3: VH4 anti-IL-6 human IgG1 (antibody, V domains shown)
VH: EVQLVQSGGGVVQPGESLRLSCAASGFTFSSYSMNWVRQAPGKGLEWVSVIYSGGSTYYADSVKGRFTISRDNSKNTLYLQMNSLRAEDTAVYYCAREVYHSSGYDDAFDIWGRGTMVTVSS
VL: DIQMTQSPSTLSASIGDRVTITCRASEGIYHWLAWYQQKPGKAPKLLIYKASSLASGAPSRFSGSGSGTDFTLTISSLQPDDFATYYCQQYSNYPLTFGGGTKLEIK
notes: Human IgG1; also called VH4-IgG1; anti-IL-6 VH4
- binding result (mouse IL-6): binds

B4: G9 scFv2-Fc (Fc fusion)
chain: QVQLVESGGGLVEPGGSLRLSCAASGFTFSNYAINWVRQAPGKGLEWVANIHHDGNGKYYVDSVEGRFTISRDNAKNSLYLQMDSLRAEDTAIYYCARDGYGGYLDLWGQGTLVTVSSGGGGSGGGGSGGGGSSELTQDPAVSVALGQTVRITCQGDSLRSYYASWYQQKPGQAPVLVIYGKNNRPSGIPDRFSGSGSGNTASLTITGAQAEDEADYYCAAWDDSLSGPVFGGGTKVTVLG
notes: Bivalent (scFv)2-Fc; also called G9-Fc; not shown: Fc fragment of human IgG1 (pFUSE-hFc2(IL2ss) vector)
- binding result [2]: binds

B5: F12-IgG1 (IgG1 anti-TfR1 F12 antibody) (antibody, V domains shown)
VH: QVQLQESGGGLVQPGGSLRLSCAASGFSFNTYTMHWVRQAPGKGLEWVADIAYDGSTKYYADSVKGRFTISRDNAKNSLYLQMNSLRAEDTAVYYCARDAVAGEGYFDLWGRGTLVTVSS
VL: QSALTQDPAVSVALGQTVRITCQGDSLRSYYASWYQQLPGTAPKLLIYRNNQRPSGVPDRFSGSKSGTSASLAISGLRSEDEADYYCAAWDDSLSAWVFGGGTKLTVLG
notes: Human IgG1; Produced as monoclonal control beside the tetravalent BsAb; also called F12 (anti TfR1 Human IgG1); parental mAb anti-TfR1 F12
- viability of Raji cells, 3 days, IC50 [3]: 0.8 nM
- viability of XG6 and XG7 cells in 1% FCS, 3 days, IC50 of the combination F12 + VH4 [3]: 1 nM
- viability of XG6 cells, 5 days, IC50 [3]: 4 nM
- EC50 [4]: 1 nM

B6: F12 scFv2-Fc (Fc fusion)
chain: QVQLQESGGGLVQPGGSLRLSCAASGFSFNTYTMHWVRQAPGKGLEWVADIAYDGSTKYYADSVKGRFTISRDNAKNSLYLQMNSLRAEDTAVYYCARDAVAGEGYFDLWGRGTLVTVSSGGGGSGGGGSGGGGSQSALTQDPAVSVALGQTVRITCQGDSLRSYYASWYQQLPGTAPKLLIYRNNQRPSGVPDRFSGSKSGTSASLAISGLRSEDEADYYCAAWDDSLSAWVFGGGTKLTVLGA
notes: Bivalent (scFv)2-Fc; also called F12-Fc; not shown: Fc fragment of human IgG1 (pFUSE-hFc2(IL2ss) vector)
- binding result [1]: binds
- binding result [2]: binds

B7: H7-scFv2 (50 kD dimeric (scFv)2 H7 antibody) (scFv)
scFv: QVQLQESGGGVVQPGRSLRLSCAASRFTFSSYAMHWVRQAPGKGLEWVAVISYDGSNKYYADSVKGRFTISRDNSKNTLYLQMNSLRAEDTAVYYCARDLSGYGDYPDYWGQGTLVTVSSGGGGSGGGGSGGGGSSELTQDPAVSVALGQTVRITCQGDSLRSYYASWYQQKPGQAPVLVMYGRNERPSGVPDRFSGSKSGTSASLAISGLQPEDEANYYCAGWDDSLTGPVFGGGTKLTVLG
- ERY-1 cell viability inhibition, IC50 [3]: 2 nM

B9: H7-scFv (monovalent) (scFv)
scFv: QVQLQESGGGVVQPGRSLRLSCAASRFTFSSYAMHWVRQAPGKGLEWVAVISYDGSNKYYADSVKGRFTISRDNSKNTLYLQMNSLRAEDTAVYYCARDLSGYGDYPDYWGQGTLVTVSSGGGGSGGGGSGGGGSSELTQDPAVSVALGQTVRITCQGDSLRSYYASWYQQKPGQAPVLVMYGRNERPSGVPDRFSGSKSGTSASLAISGLQPEDEANYYCAGWDDSLTGPVFGGGTKLTVLG
- ERY-1 cell viability inhibition, IC50 [3]: 200 nM

B10: H7 scFv2-Fc (H7-Fc) (Fc fusion)
chain: QVQLQESGGGVVQPGRSLRLSCAASRFTFSSYAMHWVRQAPGKGLEWVAVISYDGSNKYYADSVKGRFTISRDNSKNTLYLQMNSLRAEDTAVYYCARDLSGYGDYPDYWGQGTLVTVSSGGGGSGGGGSGGGGSSELTQDPAVSVALGQTVRITCQGDSLRSYYASWYQQKPGQAPVLVMYGRNERPSGVPDRFSGSKSGTSASLAISGLQPEDEANYYCAGWDDSLTGPVFGGGTKLTVLG
notes: Bivalent 100 kD (scFv)2-Fc made in HEK-293 T cells; not shown: Fc fragment of human IgG1 (pFUSE-hFc2(IL2ss) vector)
- EC50 [6]: 0.8 nM

B11: F2 scFv2-Fc (Fc fusion)
chain: QVQLQQSGGGVVQPGGSLRLSCAASEFTFSASGMHWVRQAPGKGLEWMAFIAYDGNQKFYADSVKGRFTISRDNSKNTLYLQMDSLRGEDTAVYYCAKEMQREGYFDYWGQGTLVTVSSGGGGSGGGGSGGGGSNFMLTQDPAVSVALGQTVRITCQGDSLRSYYASWYQQKPGQAPVLVIYGKNNRPSGIPDRFSGSKSGNSASLDISGLQSEDEADYYCATWDDNLSGPIFGGGTKVTVLG
notes: Bivalent (scFv)2-Fc; also called F2-Fc; not shown: Fc fragment of human IgG1 (pFUSE-hFc2(IL2ss) vector)
- binding result [2]: binds

The remaining lines, values ahead:

- binding result [1]: no binding
B1: C32-IgG1 (antibody, V domains shown)
VH: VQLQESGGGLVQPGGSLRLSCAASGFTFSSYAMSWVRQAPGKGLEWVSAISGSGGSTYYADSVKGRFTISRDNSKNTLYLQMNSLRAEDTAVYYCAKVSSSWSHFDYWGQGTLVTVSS
VL: DVVMTQSPSTLSASVGDRVTITCRASQYISNWLAWYQQKPGKAPKLLIYKASSLESGVPSRFSGSGSGTEFTLTISSLQPEDFATYYCQESYNTPLFTFGPGTKLEIKR
notes: Full length human IgG1; also called C32 (IgG1 format)

- binding result [1]: no binding
B2: H7-IgG1 (full length human IgG1 anti-TfR1) (antibody, V domains shown)
VH: QVQLQESGGGVVQPGRSLRLSCAASRFTFSSYAMHWVRQAPGKGLEWVAVISYDGSNKYYADSVKGRFTISRDNSKNTLYLQMNSLRAEDTAVYYCARDLSGYGDYPDYWGQGTLVTVSS
VL: SELTQDPAVSVALGQTVRITCQGDSLRSYYASWYQQKPGQAPVLVMYGRNERPSGVPDRFSGSKSGTSASLAISGLQPEDEANYYCAGWDDSLTGPVFGGGTKLTVLG
notes: also called H7-anti-TfR1 IgG1

- EC50 [5]: 30.1 nM
B8: scFv-Fc bispecific antibody (anti-TfR1 scFv / anti-IL-6 scFv, knob into hole Fc) (bispecific antibody)
chain 1: QVQLQESGGGVVQPGRSLRLSCAASRFTFSSYAMHWVRQAPGKGLEWVAVISYDGSNKYYADSVKGRFTISRDNSKNTLYLQMNSLRAEDTAVYYCARDLSGYGDYPDYWGQGTLVTVSSGGGGSGGGGSGGGGSSELTQDPAVSVALGQTVRITCQGDSLRSYYASWYQQKPGQAPVLVMYGRNERPSGVPDRFSGSKSGTSASLAISGLQPEDEANYYCAGWDDSLTGPVFGGGTKLTVLG
chain 2: EVQLVQSGGGVVQPGESLRLSCAASGFTFSSYSMNWVRQAPGKGLEWVSVIYSGGSTYYADSVKGRFTISRDNSKNTLYLQMNSLRAEDTAVYYCAREVYHSSGYDDAFDIWGRGTMVTVSSGGGGSGGGGSGGGGSDIQMTQSPSTLSASIGDRVTITCRASEGIYHWLAWYQQKPGKAPKLLIYKASSLASGAPSRFSGSGSGTDFTLTISSLQPDDFATYYCQQYSNYPLTFGGGTKLEIK

- binding result [2]: binds
B12: H9 scFv2-Fc (Fc fusion)
chain: QVQLAESGGGLVKPGGSLRLSCAASGFTFSDYYMSWIRQAPGKGLEWVSYISTSGSSIYYVDSVKGRFTISRDNAKNSLYLQMDSLRDDDTAVYYCARDLHGDYAFDSWGQGTLVTVSSGGGGSGGGGSGGGGSSELTQDPAVSVALGQTVRITCQGDSLRSYYASWYQQKPGQAPVLVIYGKNNRPSGIPDRFSGSKSGNSASLDISGLQSEDEADYYCATWDDNLSGPIFGGGTKVTVLG
notes: Bivalent (scFv)2-Fc; also called H9-Fc; not shown: Fc fragment of human IgG1 (pFUSE-hFc2(IL2ss) vector)
